The text below walks through data of paper PMC3406032, “Tristetraprolin Inhibits Poly(A)-Tail Synthesis in Nuclear mRNA that Contains AU-Rich Elements by Interacting with Poly(A)-Binding Protein Nuclear 1” (PLoS ONE, 2012).

Experiment [1] deals with T1, MBP-PABPN1-HA-(His)6 (mouse).
T1 sequence (Q8CCS6 whole entry, looked up): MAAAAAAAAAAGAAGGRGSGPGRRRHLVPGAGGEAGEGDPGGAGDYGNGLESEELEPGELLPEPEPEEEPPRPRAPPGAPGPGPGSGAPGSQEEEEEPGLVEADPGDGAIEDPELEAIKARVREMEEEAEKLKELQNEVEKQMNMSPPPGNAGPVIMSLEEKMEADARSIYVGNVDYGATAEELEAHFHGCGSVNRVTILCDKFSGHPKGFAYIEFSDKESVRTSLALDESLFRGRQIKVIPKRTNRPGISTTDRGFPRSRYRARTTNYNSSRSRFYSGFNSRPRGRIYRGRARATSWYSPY
The experiment can be described thus: pull-down; MBP-PABPN1 immobilised on amylose resin and incubated with (His)6-PAP-myc and GST-TTP together; blots with anti-GST and anti-myc quantitated; oligo(A)12 added to some samples.

The target of experiment [2] is T2, hexahistidine-PAP-myc (UniProt Q61183-1 1-739).
T2 construct: poly(A) polymerase (PAP), NM_011112, in a pQE expression vector; also called (His)6-PAP-myc; poly(A) polymerase; source: bacterially expressed (E. coli STBL2 or Rosetta(DE3)pLacI), purified; not shown: His6, N-terminal, kept; myc, C-terminal, kept
T2 sequence (Q61183 whole entry): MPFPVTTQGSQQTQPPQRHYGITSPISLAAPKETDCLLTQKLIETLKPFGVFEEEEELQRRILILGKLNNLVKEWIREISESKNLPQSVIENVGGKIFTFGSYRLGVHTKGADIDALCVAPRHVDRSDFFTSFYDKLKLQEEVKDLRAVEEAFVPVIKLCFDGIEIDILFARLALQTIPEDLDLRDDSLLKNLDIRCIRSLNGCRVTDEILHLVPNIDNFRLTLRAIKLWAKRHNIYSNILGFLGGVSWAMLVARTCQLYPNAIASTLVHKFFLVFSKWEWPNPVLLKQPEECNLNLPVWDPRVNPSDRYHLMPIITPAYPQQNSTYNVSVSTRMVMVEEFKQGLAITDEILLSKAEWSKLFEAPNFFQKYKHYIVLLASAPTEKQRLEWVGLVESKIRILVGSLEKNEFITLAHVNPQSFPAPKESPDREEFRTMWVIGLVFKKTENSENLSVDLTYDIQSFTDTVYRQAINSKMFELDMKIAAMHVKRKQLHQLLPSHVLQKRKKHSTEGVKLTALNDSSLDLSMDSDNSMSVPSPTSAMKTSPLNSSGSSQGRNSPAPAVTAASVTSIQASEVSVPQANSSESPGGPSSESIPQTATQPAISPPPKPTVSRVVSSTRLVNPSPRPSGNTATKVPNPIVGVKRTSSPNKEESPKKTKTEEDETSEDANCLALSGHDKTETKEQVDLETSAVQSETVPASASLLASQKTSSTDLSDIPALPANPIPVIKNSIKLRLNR
Kind of experiment: co-IP; 0.5 µg bacterially expressed GST-TTP construct and 0.5 µg (His)6-PAP-myc with anti-myc agarose in 10 mM Tris pH 7.0, 0.15 M NaCl, 1 mM MgCl2, 0.7 mM ZnCl2, 0.1% NP-40, 4°C overnight; blots with anti-myc and anti-GST. The settings on record: both partners purified.

For experiment [3], the target named is (His)6-PABPN1 (mouse) (UniProt O35445).

In turn, “hexahistidine-PAP-myc (from UniProt Q61183-1 1-739) (enzyme)” showed a fold change of PAP pulled down with GST-TTP present, against PAP alone in experiment [1] of 4 fold.

B1: GST-TTP@2-186 (domain or fragment, mouse, UniProt P22893 2-186, looked up)
chain: DLSAIYESLQSMSHDLSSDHGGTESLGGLWNINSDSIPSGVTSRLTGRSTSLVEGRSCGWVPPPPGFAPLAPRPGPELSPSPTSPTATPTTSSRYKTELCRTYSESGRCRYGAKCQFAHGLGELRQANRHPKYKTELCHKFYLQGRCPYGSRCHFIHNPTEDLALPGQPHVLRQSISFSGLPSGR
notes: source: E. coli STBL2 or Rosetta(DE3)pLacI, purified (glutathione-agarose); not shown: GST, N-terminal, kept
In the case of B1, the binding result in experiment [2] was “binds”.

B2: N-terminally glutathione S-transferase-tagged wild-type TTP (natural protein, mouse, UniProt P22893 2-319, looked up)
chain: DLSAIYESLQSMSHDLSSDHGGTESLGGLWNINSDSIPSGVTSRLTGRSTSLVEGRSCGWVPPPPGFAPLAPRPGPELSPSPTSPTATPTTSSRYKTELCRTYSESGRCRYGAKCQFAHGLGELRQANRHPKYKTELCHKFYLQGRCPYGSRCHFIHNPTEDLALPGQPHVLRQSISFSGLPSGRRSSPPPPGFSGPSLSSCSFSPSSSPPPPGDLPLSPSAFSAAPGTPVTRRDPNQACCPSCRRSTTPSTIWGPLGGLARSPSAHSLGSDPDDYASSGSSLGGSDSPVFEAGVFGPPQTPAPPRRLPIFNRISVSE
notes: also called WT GST-TTP; GST-TTP; source: E. coli STBL2 or Rosetta(DE3)pLacI, purified (glutathione-agarose); not shown: GST, N-terminal, kept
For the molecule B2, in experiment [2], the binding result is recorded as “binds”. Moreover, the in vitro polyadenylation of TNFα-ARE A20 RNA by (His)6-PAP-myc with (His)6-PABPN1: reduction of the processive addition of adenosines by GST-TTP at 2 and 5 min in experiment [3] is 45%. Also, in experiment [1], the amount of TTP pulled down with (His)6-PAP-myc present, against TTP alone came to 80%.

B3: GST-TTP@2-319(F118N) (natural protein, mouse, UniProt P22893 2-319, looked up)
chain: DLSAIYESLQSMSHDLSSDHGGTESLGGLWNINSDSIPSGVTSRLTGRSTSLVEGRSCGWVPPPPGFAPLAPRPGPELSPSPTSPTATPTTSSRYKTELCRTYSESGRCRYGAKCQNAHGLGELRQANRHPKYKTELCHKFYLQGRCPYGSRCHFIHNPTEDLALPGQPHVLRQSISFSGLPSGRRSSPPPPGFSGPSLSSCSFSPSSSPPPPGDLPLSPSAFSAAPGTPVTRRDPNQACCPSCRRSTTPSTIWGPLGGLARSPSAHSLGSDPDDYASSGSSLGGSDSPVFEAGVFGPPQTPAPPRRLPIFNRISVSE
notes: as for B1
B3: the binding result in experiment [2] is “binds”.

B4: GST-TTPΔ95–158 (natural protein, mouse, UniProt P22893 2-319, looked up)
chain: DLSAIYESLQSMSHDLSSDHGGTESLGGLWNINSDSIPSGVTSRLTGRSTSLVEGRSCGWVPPPPGFAPLAPRPGPELSPSPTSPTATPTTSSNPTEDLALPGQPHVLRQSISFSGLPSGRRSSPPPPGFSGPSLSSCSFSPSSSPPPPGDLPLSPSAFSAAPGTPVTRRDPNQACCPSCRRSTTPSTIWGPLGGLARSPSAHSLGSDPDDYASSGSSLGGSDSPVFEAGVFGPPQTPAPPRRLPIFNRISVSE
notes: also called TZF domain-deleted TTP mutant; source: E. coli STBL2 or Rosetta(DE3)pLacI, purified (glutathione-agarose); not shown: GST, N-terminal, kept
For B4, in experiment [2], the binding result was “binds”.

B5: GST-TTP@95-158 (domain or fragment, mouse, UniProt P22893 95-158, looked up)
chain: RYKTELCRTYSESGRCRYGAKCQFAHGLGELRQANRHPKYKTELCHKFYLQGRCPYGSRCHFIH
notes: also called TZF construct; TZF domain; source: E. coli STBL2 or Rosetta(DE3)pLacI, purified (glutathione-agarose); not shown: GST, N-terminal, kept
With B5, the binding result in experiment [2] is “binds”.

B6: GST-TTP@95-158(F118N) (domain or fragment, mouse, UniProt P22893 95-158, looked up)
chain: RYKTELCRTYSESGRCRYGAKCQNAHGLGELRQANRHPKYKTELCHKFYLQGRCPYGSRCHFIH
notes: as for B1
For B6, the binding result in experiment [2] was “binds”.
